Legend:
[1] = system: AncSZ; assay: phosphorylation enrichment, bacterial display (enrichment ratio); higher = better substrate or ligand; peptides without Tyr show the background
[2] = target: EPHB1 (UniProt P54762); assay: as above
[3] = target: EPHB2 (UniProt P29323); assay: as above
[4] = target: FGFR1 (UniProt P11362); assay: as above
[5] = target: FGFR3 (UniProt P22607); assay: as above
[6] = system: Fer (mouse); assay: as above
[7] = target: Fes (UniProt P07332); assay: as above
[8] = target: Fyn (UniProt P06241); assay: as above
[9] = target: Hck (UniProt P08631); assay: as above
Sequence of Hck (P08631 whole entry, looked up): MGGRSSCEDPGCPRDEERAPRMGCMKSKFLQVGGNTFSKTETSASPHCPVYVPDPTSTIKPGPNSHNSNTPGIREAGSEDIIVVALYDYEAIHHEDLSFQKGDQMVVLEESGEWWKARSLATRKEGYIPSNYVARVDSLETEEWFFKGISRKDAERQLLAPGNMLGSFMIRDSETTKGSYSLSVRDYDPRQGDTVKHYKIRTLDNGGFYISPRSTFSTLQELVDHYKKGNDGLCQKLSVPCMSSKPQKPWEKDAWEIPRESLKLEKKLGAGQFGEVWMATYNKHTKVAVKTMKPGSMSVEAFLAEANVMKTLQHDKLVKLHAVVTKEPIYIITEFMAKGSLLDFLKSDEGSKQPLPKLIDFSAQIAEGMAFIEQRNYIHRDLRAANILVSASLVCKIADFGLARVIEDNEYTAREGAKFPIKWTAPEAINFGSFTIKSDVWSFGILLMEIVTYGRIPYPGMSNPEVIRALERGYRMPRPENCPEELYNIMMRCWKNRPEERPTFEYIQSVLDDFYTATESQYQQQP

[10] = target: Jak2 (UniProt O60674); assay: as above
Sequence of Jak2 (O60674 whole entry, looked up): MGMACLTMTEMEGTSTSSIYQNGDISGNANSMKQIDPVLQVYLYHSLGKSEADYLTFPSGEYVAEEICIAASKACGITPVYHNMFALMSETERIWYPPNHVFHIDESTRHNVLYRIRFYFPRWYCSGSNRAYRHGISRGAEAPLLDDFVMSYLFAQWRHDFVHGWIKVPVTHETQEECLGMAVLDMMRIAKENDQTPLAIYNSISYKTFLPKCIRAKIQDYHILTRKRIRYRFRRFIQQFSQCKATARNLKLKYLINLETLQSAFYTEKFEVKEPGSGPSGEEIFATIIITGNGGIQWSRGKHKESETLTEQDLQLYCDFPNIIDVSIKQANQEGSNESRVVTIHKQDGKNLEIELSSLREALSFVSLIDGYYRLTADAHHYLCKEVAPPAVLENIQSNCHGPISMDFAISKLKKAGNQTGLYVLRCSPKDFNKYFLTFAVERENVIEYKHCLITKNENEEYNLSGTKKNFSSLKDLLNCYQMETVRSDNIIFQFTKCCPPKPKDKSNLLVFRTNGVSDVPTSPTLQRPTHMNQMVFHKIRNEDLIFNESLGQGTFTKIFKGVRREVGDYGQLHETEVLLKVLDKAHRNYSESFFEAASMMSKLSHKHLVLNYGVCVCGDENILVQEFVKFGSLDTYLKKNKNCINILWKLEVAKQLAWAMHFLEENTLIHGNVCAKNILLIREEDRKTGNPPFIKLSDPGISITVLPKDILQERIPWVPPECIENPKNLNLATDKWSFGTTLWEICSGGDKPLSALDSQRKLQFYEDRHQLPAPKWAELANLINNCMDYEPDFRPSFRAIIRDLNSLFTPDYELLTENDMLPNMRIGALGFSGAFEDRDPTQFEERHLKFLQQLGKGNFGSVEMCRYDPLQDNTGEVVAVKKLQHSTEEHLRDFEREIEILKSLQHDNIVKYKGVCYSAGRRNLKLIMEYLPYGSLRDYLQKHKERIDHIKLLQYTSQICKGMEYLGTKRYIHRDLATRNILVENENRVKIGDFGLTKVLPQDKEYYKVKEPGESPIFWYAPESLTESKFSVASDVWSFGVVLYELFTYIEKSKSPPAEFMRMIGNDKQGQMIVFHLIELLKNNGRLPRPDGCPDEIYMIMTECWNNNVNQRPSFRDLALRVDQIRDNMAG

[11] = target: MERTK (UniProt Q12866); assay: as above
Sequence of MERTK (Q12866 whole entry, looked up): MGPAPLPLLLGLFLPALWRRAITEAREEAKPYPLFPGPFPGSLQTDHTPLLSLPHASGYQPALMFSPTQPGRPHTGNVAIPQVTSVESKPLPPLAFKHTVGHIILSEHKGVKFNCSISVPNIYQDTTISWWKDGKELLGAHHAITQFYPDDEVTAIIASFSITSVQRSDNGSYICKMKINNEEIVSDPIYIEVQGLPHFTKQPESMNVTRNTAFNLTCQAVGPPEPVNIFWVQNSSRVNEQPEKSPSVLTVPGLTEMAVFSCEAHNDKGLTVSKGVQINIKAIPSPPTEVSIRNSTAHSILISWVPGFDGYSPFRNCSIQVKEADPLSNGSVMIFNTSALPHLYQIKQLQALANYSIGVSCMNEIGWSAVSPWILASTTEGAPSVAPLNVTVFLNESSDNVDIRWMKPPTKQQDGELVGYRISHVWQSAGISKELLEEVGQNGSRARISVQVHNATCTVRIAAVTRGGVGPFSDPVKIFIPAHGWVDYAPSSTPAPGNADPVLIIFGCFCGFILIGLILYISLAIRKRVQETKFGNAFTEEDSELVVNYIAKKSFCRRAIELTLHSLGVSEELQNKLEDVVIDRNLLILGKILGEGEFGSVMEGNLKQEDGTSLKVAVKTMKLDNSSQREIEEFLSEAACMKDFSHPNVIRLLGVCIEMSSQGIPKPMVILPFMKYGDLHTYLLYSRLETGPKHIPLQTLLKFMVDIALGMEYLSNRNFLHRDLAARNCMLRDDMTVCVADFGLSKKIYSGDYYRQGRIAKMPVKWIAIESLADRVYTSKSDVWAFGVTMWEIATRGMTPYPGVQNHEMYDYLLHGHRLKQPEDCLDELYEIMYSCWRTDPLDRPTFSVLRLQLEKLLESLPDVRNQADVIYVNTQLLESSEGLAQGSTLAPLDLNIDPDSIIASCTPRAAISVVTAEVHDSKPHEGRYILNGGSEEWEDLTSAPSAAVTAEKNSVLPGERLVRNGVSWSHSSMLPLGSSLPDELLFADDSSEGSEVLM

[12] = system: c-Abl (mouse); assay: as above
[13] = system: c-Src; assay: as above
[14] = target: Grb2 SH2 (UniProt P62993); assay: SH2 binding enrichment of the phosphorylated peptide, bacterial display (enrichment ratio); higher = better substrate or ligand; peptides without Tyr show the background
Sequence of Grb2 SH2 (P62993 whole entry, looked up): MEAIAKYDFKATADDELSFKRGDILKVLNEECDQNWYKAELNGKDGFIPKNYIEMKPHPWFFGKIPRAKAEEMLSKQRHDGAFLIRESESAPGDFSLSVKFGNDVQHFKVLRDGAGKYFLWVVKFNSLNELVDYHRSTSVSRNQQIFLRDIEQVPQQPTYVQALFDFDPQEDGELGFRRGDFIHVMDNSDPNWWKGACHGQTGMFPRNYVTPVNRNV

[15] = target: SHP2-C SH2; assay: as above
[16] = target: c-Src SH2; assay: as above
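Wherever SH2 binding enrichment of the phosphorylated peptide, bacterial display is given: peptide library displayed on the E. coli surface as eCPX fusions, selected cells deep-sequenced, score is each peptide's frequency after selection divided by its frequency in the input.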
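Wherever phosphorylation enrichment, bacterial display is given: 11-residue human phosphosite peptides and single-mutation variants displayed on the E. coli surface, counted by deep sequencing, each peptide's frequency after selection divided by its frequency in the unselected input library; frequency after pTyr selection over input frequency; kinase dosed for 20-30% of maximal phosphorylation in three min.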

Sequence of EPHB2 (P29323 whole entry, looked up): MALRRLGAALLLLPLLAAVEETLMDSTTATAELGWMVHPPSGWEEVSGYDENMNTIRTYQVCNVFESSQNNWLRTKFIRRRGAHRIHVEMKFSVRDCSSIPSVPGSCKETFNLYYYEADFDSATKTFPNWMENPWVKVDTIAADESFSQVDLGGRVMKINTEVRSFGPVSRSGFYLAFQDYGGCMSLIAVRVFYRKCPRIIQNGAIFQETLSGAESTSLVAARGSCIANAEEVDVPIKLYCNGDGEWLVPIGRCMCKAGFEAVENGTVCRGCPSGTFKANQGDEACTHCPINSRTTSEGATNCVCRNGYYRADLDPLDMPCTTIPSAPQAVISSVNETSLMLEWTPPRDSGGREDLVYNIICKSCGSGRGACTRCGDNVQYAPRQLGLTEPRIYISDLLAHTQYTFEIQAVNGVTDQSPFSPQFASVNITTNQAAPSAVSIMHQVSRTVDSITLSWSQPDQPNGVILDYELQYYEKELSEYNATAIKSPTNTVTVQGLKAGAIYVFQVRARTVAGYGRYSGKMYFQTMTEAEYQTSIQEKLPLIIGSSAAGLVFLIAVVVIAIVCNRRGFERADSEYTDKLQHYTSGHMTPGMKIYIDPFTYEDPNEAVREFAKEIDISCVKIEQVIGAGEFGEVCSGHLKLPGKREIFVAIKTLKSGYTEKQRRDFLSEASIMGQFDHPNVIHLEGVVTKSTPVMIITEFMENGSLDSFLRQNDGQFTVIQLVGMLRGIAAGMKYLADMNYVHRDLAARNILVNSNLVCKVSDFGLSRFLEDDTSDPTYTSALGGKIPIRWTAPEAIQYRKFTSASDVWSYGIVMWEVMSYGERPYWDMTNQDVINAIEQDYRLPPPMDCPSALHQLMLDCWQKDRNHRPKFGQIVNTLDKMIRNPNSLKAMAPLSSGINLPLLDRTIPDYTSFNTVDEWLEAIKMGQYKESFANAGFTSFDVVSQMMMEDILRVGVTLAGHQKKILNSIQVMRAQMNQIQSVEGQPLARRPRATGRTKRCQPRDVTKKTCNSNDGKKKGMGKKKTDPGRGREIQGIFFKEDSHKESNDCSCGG
Sequence of EPHB1 (P54762 whole entry, looked up): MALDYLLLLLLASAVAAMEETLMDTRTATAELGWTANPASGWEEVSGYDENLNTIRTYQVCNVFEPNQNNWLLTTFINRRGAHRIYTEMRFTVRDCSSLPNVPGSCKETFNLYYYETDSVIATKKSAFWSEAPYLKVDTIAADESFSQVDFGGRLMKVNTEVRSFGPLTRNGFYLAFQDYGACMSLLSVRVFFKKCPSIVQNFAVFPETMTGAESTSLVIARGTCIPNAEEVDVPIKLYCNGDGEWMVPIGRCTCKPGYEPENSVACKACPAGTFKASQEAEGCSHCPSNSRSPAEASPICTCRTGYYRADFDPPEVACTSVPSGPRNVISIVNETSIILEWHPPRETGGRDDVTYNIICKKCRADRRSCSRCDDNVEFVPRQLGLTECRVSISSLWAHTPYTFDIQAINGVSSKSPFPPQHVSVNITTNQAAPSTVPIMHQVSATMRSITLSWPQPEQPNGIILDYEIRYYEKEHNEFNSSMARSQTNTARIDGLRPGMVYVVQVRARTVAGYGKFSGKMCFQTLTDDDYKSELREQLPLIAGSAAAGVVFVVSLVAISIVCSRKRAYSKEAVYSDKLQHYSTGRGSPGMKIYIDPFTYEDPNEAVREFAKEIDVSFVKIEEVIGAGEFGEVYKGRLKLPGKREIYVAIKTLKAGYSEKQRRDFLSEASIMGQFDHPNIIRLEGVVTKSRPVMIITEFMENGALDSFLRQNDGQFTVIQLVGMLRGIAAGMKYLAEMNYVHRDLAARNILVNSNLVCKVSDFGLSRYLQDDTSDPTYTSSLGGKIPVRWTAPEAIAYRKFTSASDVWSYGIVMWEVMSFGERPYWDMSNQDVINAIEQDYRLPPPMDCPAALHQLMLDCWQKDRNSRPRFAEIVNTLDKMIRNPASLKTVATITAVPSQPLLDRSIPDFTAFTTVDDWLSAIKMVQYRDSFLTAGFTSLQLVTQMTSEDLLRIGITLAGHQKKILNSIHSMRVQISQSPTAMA

Sequence: LGQRIYQYIQS [DYRK1B_Y271]
- phosphorylation enrichment [1]: 1.54
- phosphorylation enrichment [2]: 20.9
- phosphorylation enrichment [3]: 12.5
- phosphorylation enrichment [4]: 5.29
- phosphorylation enrichment [5]: 3.3
- phosphorylation enrichment [6]: 18.1
- phosphorylation enrichment [7]: 2.86
- phosphorylation enrichment [8]: 4.18
- phosphorylation enrichment [9]: 8.12
- phosphorylation enrichment [10]: 1.3
- phosphorylation enrichment [11]: 13.5
- phosphorylation enrichment [12]: 2.74
- phosphorylation enrichment [13]: 5.08
- SH2 binding enrichment [14]: 1.02
- SH2 binding enrichment [15]: 1.2
- SH2 binding enrichment [16]: 4.11

Sequence: LHAALYKRKLL [TTLL5_Y542_E543K]
- phosphorylation enrichment [1]: 0.771
- phosphorylation enrichment [2]: 0.454
- phosphorylation enrichment [3]: 0.527
- phosphorylation enrichment [4]: 0.483
- phosphorylation enrichment [5]: 0.518
- phosphorylation enrichment [6]: 0.41
- phosphorylation enrichment [7]: 0.702
- phosphorylation enrichment [8]: 0.464
- phosphorylation enrichment [9]: 0.536
- phosphorylation enrichment [10]: 1.17
- phosphorylation enrichment [11]: 0.502
- phosphorylation enrichment [12]: 1.24
- phosphorylation enrichment [13]: 0.551
- SH2 binding enrichment [14]: 0.858
- SH2 binding enrichment [15]: 2.26
- SH2 binding enrichment [16]: 0.517

Sequence: LHRHAYPEQQQ [DPPA2_Y127_R131Q]
- phosphorylation enrichment [1]: 0.726
- phosphorylation enrichment [2]: 0.837
- phosphorylation enrichment [3]: 0.811
- phosphorylation enrichment [4]: 1.07
- phosphorylation enrichment [5]: 0.828
- phosphorylation enrichment [6]: 0.743
- phosphorylation enrichment [7]: 0.901
- phosphorylation enrichment [8]: 0.824
- phosphorylation enrichment [9]: 0.474
- phosphorylation enrichment [10]: 0.645
- phosphorylation enrichment [11]: 0.401
- phosphorylation enrichment [12]: 0.716
- phosphorylation enrichment [13]: 0.559
- SH2 binding enrichment [14]: 1.02
- SH2 binding enrichment [15]: 0.839
- SH2 binding enrichment [16]: 0.906

Sequence: LHVKMYNFLRS [ADGRG7_Y760_R756H]
- phosphorylation enrichment [1]: 1.97
- phosphorylation enrichment [2]: 0.831
- phosphorylation enrichment [3]: 0.778
- phosphorylation enrichment [4]: 0.714
- phosphorylation enrichment [5]: 0.94
- phosphorylation enrichment [6]: 1.11
- phosphorylation enrichment [7]: 1.89
- phosphorylation enrichment [8]: 0.615
- phosphorylation enrichment [9]: 0.625
- phosphorylation enrichment [10]: 1.69
- phosphorylation enrichment [11]: 0.85
- phosphorylation enrichment [12]: 2.26
- phosphorylation enrichment [13]: 0.711
- SH2 binding enrichment [14]: 1.28
- SH2 binding enrichment [15]: 1.07
- SH2 binding enrichment [16]: 0.827

Sequence: LIDGFYRLTAD [JAK2_Y373_YF]
- phosphorylation enrichment [1]: 1.29
- phosphorylation enrichment [2]: 0.747
- phosphorylation enrichment [3]: 0.883
- phosphorylation enrichment [4]: 0.754
- phosphorylation enrichment [5]: 0.991
- phosphorylation enrichment [6]: 0.523
- phosphorylation enrichment [7]: 1.51
- phosphorylation enrichment [8]: 0.698
- phosphorylation enrichment [9]: 0.807
- phosphorylation enrichment [10]: 1.29
- phosphorylation enrichment [11]: 0.741
- phosphorylation enrichment [12]: 0.816
- phosphorylation enrichment [13]: 0.86
- SH2 binding enrichment [14]: 0.918
- SH2 binding enrichment [15]: 0.759
- SH2 binding enrichment [16]: 0.503

Sequence: LINLKYSVEEE [PCDH19_Y27]
- phosphorylation enrichment [1]: 1.36
- phosphorylation enrichment [2]: 0.755
- phosphorylation enrichment [3]: 0.755
- phosphorylation enrichment [4]: 0.525
- phosphorylation enrichment [5]: 0.895
- phosphorylation enrichment [6]: 0.806
- phosphorylation enrichment [7]: 2.46
- phosphorylation enrichment [8]: 0.579
- phosphorylation enrichment [9]: 0.447
- phosphorylation enrichment [10]: 1.88
- phosphorylation enrichment [11]: 0.583
- phosphorylation enrichment [12]: 1.12
- phosphorylation enrichment [13]: 1.19
- SH2 binding enrichment [14]: 0.868
- SH2 binding enrichment [15]: 0.548
- SH2 binding enrichment [16]: 0.525

Sequence: LINSVYGCSRQ [TMPRSS6_Y290_T287N]
- phosphorylation enrichment [1]: 1.43
- phosphorylation enrichment [2]: 1.01
- phosphorylation enrichment [3]: 1
- phosphorylation enrichment [4]: 1.02
- phosphorylation enrichment [5]: 0.974
- phosphorylation enrichment [6]: 0.863
- phosphorylation enrichment [7]: 1.57
- phosphorylation enrichment [8]: 3.32
- phosphorylation enrichment [9]: 4.43
- phosphorylation enrichment [10]: 1.82
- phosphorylation enrichment [11]: 1.21
- phosphorylation enrichment [12]: 1.37
- phosphorylation enrichment [13]: 5.15
- SH2 binding enrichment [14]: 0.727
- SH2 binding enrichment [15]: 1.12
- SH2 binding enrichment [16]: 0.589

Sequence: LKALKYKSMKI [ITGA11_Y1098]
- phosphorylation enrichment [1]: 0.374
- phosphorylation enrichment [2]: 0.299
- phosphorylation enrichment [3]: 0.31
- phosphorylation enrichment [4]: 0.225
- phosphorylation enrichment [5]: 0.619
- phosphorylation enrichment [6]: 0.452
- phosphorylation enrichment [7]: 0.701
- phosphorylation enrichment [8]: 0.641
- phosphorylation enrichment [9]: 0.424
- phosphorylation enrichment [10]: 0.735
- phosphorylation enrichment [11]: 0.336
- phosphorylation enrichment [12]: 0.568
- phosphorylation enrichment [13]: 0.322
- SH2 binding enrichment [14]: 1.34
- SH2 binding enrichment [15]: 0.876
- SH2 binding enrichment [16]: 0.783

— the supplement of paper PMC10065799, “High-throughput profiling of sequence recognition by tyrosine kinases and SH2 domains using bacterial peptide display” (eLife, 2023)
